We go through eight molecules from paper PMC5397884 (Biochemistry, 2017).

“And” between values parts separate entries of the source, which are not always exact repeats. Equal entries are not always repeated. Where no end group is shown, it is not given here.

The target in series [1] is GmPOPB-S577A (inactive mutant) (Galerina marginata) (UniProt H2E7Q8). The series is described as follows: ITC; 200 uM peptide in the syringe titrated into 20 uM protein in the cell; 20 °C; 50 mM Tris (pH 8.0), 50 mM NaCl, 10 mM DTT; single-site model, n fixed at 1.0. On the technique in general: In ITC the heat of successive injections is recorded.
Series [2] relates to CC[C@H](C)[C@H](N)C(=O)N[C@@H](Cc1c[nH]c2ccccc12)C(=O)NCC(=O)N[C@H](C(=O)NCC(=O)N[C@@H](CS)C(=O)N[C@@H](CC(N)=O)C(=O)N1CCC[C@H]1C(=O)N[C@@H](Cc1c[nH]c2ccccc12)C(=O)N[C@H](C(=O)N[C@@H](C)C(=O)N[C@@H](CCC(=O)O)C(=O)N[C@@H](Cc1c[nH]cn1)C(=O)N[C@H](C(=O)N[C@@H](CC(=O)O)C(=O)N[C@@H](CCC(N)=O)C(=O)N[C@H](C(=O)N[C@@H](CC(C)C)C(=O)N[C@@H](C)C(=O)N[C@@H](CO)C(=O)NCC(=O)N[C@@H](CC(N)=O)C(=O)N[C@@H](CC(=O)O)C(=O)N[C@H](C(=O)N[C@@H](CS)C(=O)O)[C@@H](C)CC)[C@@H](C)O)C(C)C)[C@@H](C)O)[C@@H](C)CC. The series is described as follows: purified protein, by the assay type. Particulars: 50 mM NaCl, 10 mM DTT, duplicate.

Series [3] has as its target His680 (UniProt position 680, DTKAGHGAGKP). The series is described as follows: other (titration of the catalytic histidine; the title of ref 41 indicates inhibitor binding). Particulars: cited from earlier work.
In series [4] the target is T1, GmPOPB (Galerina marginata, UniProt H2E7Q8).
T1 construct: His tag (TEV-cleavable) (cleaved yes); made in house; host or cells: E. coli BL21(DE3)
In words: biochemical. Particulars: Figure S10, fit to Equation S4; activity normalized to no inhibitor (100%) and 50 µM recognition sequence (0%).

For series [5], the target named is T1, GmPOPB. In words: Global fitting by numerical integration of quenched-flow and stopped-flow data. It is filed as biochemical. The settings on record: read-out: k–5 (tail association), Kintek best-fit.
In series [6] the target is GmPOPB–tail complex (GmPOPB-S577A pre-mixed with the peptide tail) (Galerina marginata) (UniProt H2E7Q8). The series is described as follows: stopped-flow tryptophan fluorescence; global fitting by numerical integration (KinTek Global Kinetic Explorer) of stopped-flow binding and quenched-flow turnover data together; 20 °C; k1/k-1 and k5/k-5 linked by the ITC Kd values; k4 and k-4 fixed at best-fit values.

For series [7] the target is unchanged. The series is described as follows: stopped-flow tryptophan fluorescence; analytical fitting; excitation 285 nm, emission above 320 nm; 20 °C; 50 mM Tris-HCl (pH 8.0), 50 mM NaCl, 10 mM DTT; constants calculated from rate constants; Kov is an apparent dissociation constant for a two-step binding process.
The subject of series [8] is porcine POP. The settings on record: cited from earlier work.
The target in series [9] is T2, Prolyl oligopeptidase B from Galerina marginata (GmPOPB) (Galerina marginata, UniProt H2E7Q8 1-730).
T2 sequence (looked up): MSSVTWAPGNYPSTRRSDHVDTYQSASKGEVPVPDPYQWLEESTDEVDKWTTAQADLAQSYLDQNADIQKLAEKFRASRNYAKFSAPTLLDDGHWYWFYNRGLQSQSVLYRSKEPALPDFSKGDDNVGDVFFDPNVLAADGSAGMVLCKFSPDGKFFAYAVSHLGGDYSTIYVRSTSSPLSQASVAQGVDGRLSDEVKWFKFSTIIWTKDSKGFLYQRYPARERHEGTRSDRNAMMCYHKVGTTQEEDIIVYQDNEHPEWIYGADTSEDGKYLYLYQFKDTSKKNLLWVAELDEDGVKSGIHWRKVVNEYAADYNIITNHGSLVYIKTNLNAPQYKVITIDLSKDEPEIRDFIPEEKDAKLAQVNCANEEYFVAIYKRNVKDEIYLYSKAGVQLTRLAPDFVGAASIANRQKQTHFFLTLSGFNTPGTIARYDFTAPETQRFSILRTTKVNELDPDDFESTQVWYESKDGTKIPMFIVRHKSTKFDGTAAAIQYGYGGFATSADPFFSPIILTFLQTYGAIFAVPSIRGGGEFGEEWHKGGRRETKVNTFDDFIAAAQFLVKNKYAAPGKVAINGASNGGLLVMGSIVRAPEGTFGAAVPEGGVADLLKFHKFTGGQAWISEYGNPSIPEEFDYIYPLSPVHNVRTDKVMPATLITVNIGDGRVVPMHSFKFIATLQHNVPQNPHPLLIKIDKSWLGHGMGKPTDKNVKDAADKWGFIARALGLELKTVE
The series is described as follows: stopped-flow tryptophan fluorescence; global fitting by numerical integration (KinTek Global Kinetic Explorer) of stopped-flow binding and quenched-flow turnover data together; 20 °C; k1/k-1 and k5/k-5 linked by the ITC Kd values; k4 and k-4 fixed at best-fit values. Particulars: both partners purified.

For series [10], the target named is T2, Prolyl oligopeptidase B from Galerina …. In words: ITC; 200 uM peptide in the syringe titrated into 20 uM protein in the cell; 20 °C; 50 mM Tris (pH 8.0), 50 mM NaCl, 10 mM DTT; single-site model, n fixed at 1.0. The settings on record: both partners purified.
Series [11] shares this target. The description is as above. The settings on record: both partners purified. The source holds these as a separate data set.
The target is the same in series [12]. In words: stopped-flow tryptophan fluorescence; analytical fitting; excitation 285 nm, emission above 320 nm; 20 °C; 50 mM Tris-HCl (pH 8.0), 50 mM NaCl, 10 mM DTT; constants calculated from rate constants; Kov is an apparent dissociation constant for a two-step binding process. Particulars: both partners purified.
The target in series [13] is T3, Prolyl oligopeptidase B from Galerina marginata (GmPOPB) (Galerina marginata, UniProt H2E7Q8 1-730).
T3 sequence (looked up): T2 sequence (looked up)
In words: stopped-flow tryptophan fluorescence; 2 μM GmPOPB, peptide tail 0.5-20 μM, 20 °C, excitation 285 nm, emission above 320 nm; analytical fitting (replots of kobs and of amplitudes against tail concentration). The settings on record: both partners purified.

The target in series [14] is T3, Prolyl oligopeptidase B from Galerina …. The series is described as follows: stopped-flow tryptophan fluorescence; 2 μM GmPOPB, peptide tail 0.5-20 μM, 20 °C; this experiment fitted individually by numerical integration (KinTek Global Explorer, Fitspace boundaries), no constraints. Particulars: both partners purified.
Series [15] shares this target. The series is described as follows: stopped-flow tryptophan fluorescence; 2 μM GmPOPB, peptide tail 0.5-20 μM, 20 °C, excitation 285 nm, emission above 320 nm; analytical fitting (replots of kobs and of amplitudes against tail concentration). Particulars: both partners purified. This is another data set of the same source.
The mark [16] stands for this setting: other: 20 °C, 50 mM Tris-HCl (pH 8.0), standard error, 20.0 °C.

Sequence of 25mer peptide substrate of GmPOPB (core plus peptide tail of the amanitin precursor) (A0A067SLB9 11-35 limits assumed): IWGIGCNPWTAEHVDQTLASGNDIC

For the molecule “25mer peptide substrate of GmPOPB (core plus peptide tail of the amanitin precursor)”, the stoichiometry N in series [1] came to 1.
With GmPOPB (Galerina marginata CBS 339.88), the Km in series [2] (setting [16]) was 55 µM and 55.4 ± 18.6 µM; in [2] (other: H2O, 37 °C, 50 mM Tris (pH 8.0), LC–MS, 37.0 °C), 51 µM. Moreover, the kcat in [2] (setting [16]) was found to be 0.23 ± 0.03 s^–1.
For the molecule “Prolyl oligopeptidase (prolyl endopeptidase, POP) (Sus scrofa)”, the pKa in series [3] is recorded as 6.25.
WTAEHVDQTLASGNDIC [peptide tail] had an IC50 in series [4] of 320 ± 100 nM. The kon in series [5] came out at 3.22e+06 ± 10000 M⁻¹ s⁻¹.
Turning to “eight-amino acid cyclic peptide product of the GmPOPB macrocyclization reaction”, in series [6], the k3 (slower step of the two-step binding, direction of release of the cyclic peptide) turned out to be 12.3 s^–1; the k4 (fast bimolecular step of the two-step binding, dissociation of the cyclic peptide) stood at 100 s^–1; the k-3 (slower step of the two-step binding, direction of binding of the cyclic peptide) is 0.78 μM^–1 s^–1; the k-4 (fast bimolecular step of the two-step binding, association of the cyclic peptide) amounted to 60 μM^–1 s^–1. In addition, the Kd in [7] was 99.2 nM.
Take “porcine POP: Sus scrofa (porcine) prolyl oligopeptidase”: the “activation energy, porcine POP” value in [8] (depending on the substrate used) was 14 to 20 kcal mol^–1. Besides, in series [8] (dipeptide substrate), the “pKa (first), porcine POP” value was 5; the “pKa (second), porcine POP” value was 7; the “pKa (third), porcine POP” value was 9.5. For the same molecule, the “pKa of catalytic His680, porcine POP” value in [8] (titration of the catalytic histidine) is 6.25.
WTAEHVDQTLASGNDIC [peptide tail (17-amino acid C-terminal recognition sequence)]: in series [9], the koff worked out at 1.44 s⁻¹. In addition, in series [10], the “stoichiometry N” value is approximately 1. For the same molecule, the Kd in series [11] was 442 nM; in series [12] it was 731 nM.
In series [13], WTAEHVDQTLASGNDIC [Peptide tail (WTAEHVDQTLASGNDIC)] showed a koff of 3.54 s⁻¹ and a kon of 4.84e+06 M⁻¹ s⁻¹. Further, in series [14], the koff was 0.58 s⁻¹ and the kon was 4.69e+06 M⁻¹ s⁻¹. The same molecule gave a Kd in series [15] of 322 ± 37.5 nM.

One may read the stoichiometry N as the number of molecules, sites or subunits per partner or assembly. One may read the Km as the concentration of substrate that gives half-maximal velocity. As usually defined, the pKa is the negative logarithm of the acid dissociation constant. One may read the IC50 as the concentration that inhibits the measured activity by half. Read a low IC50 as inhibition by little substance. As usually defined, the koff is the first-order rate constant of dissociation. Lower therefore signals slow dissociation.
